Laboratory results taken from paper PMC8934651, “Yeast Ssd1 is a non-enzymatic member of the RNase II family with an alternative RNA recognition site”.

Tests used:
[1] = biological target: T1, Ssd1 ΔN338 (Saccharomyces cerevisiae (S288C/BY4741 …, UniProt P24276 339-1250)); assay: fluorescence anisotropy; Anisotropy: 20 nM RNA, 20 mM HEPES pH 7.5, 150 mM NaCl, 1 mM DTT, 0.01% Tween 20, 15 and 30 min on ice; EMSA: 0.5 uM RNA, 20 mM HEPES pH 7.5, 150 mM K acetate; details: protein: recombinant, tags: His tag cleaved with 3C protease
T1 sequence: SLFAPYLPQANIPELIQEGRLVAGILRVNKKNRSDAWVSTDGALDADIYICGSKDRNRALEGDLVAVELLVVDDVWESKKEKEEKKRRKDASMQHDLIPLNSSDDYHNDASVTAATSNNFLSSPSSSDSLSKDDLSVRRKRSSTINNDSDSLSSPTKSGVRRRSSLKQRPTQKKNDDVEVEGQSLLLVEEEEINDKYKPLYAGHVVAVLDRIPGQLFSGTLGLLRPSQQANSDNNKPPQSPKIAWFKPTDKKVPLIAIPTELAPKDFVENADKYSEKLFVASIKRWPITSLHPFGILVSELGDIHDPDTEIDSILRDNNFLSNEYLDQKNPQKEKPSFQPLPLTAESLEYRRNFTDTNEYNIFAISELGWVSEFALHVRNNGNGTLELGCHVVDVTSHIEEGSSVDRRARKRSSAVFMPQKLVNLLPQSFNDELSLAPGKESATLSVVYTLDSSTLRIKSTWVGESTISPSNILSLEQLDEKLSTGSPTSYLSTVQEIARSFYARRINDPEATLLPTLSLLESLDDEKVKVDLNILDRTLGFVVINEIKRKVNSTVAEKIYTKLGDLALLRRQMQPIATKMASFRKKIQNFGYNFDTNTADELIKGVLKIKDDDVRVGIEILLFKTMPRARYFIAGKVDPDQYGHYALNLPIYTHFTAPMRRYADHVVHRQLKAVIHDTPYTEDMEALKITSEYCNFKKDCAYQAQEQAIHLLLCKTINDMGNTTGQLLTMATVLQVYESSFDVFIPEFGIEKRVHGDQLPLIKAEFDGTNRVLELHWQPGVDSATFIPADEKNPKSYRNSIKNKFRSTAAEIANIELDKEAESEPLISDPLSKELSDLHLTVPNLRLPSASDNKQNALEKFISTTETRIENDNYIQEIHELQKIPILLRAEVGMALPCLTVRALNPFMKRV

[2] = biological target: T1, Ssd1 ΔN338; assay: as above; details: protein: recombinant; tags: His tag cleaved with 3C protease; label: 5'-Cy3
[3] = biological target: T1, Ssd1 ΔN338; assay: EMSA; 5 mM Mg acetate; no significant binding; Anisotropy: 20 nM RNA, 20 mM HEPES pH 7.5, 150 mM NaCl, 1 mM DTT, 0.01% Tween 20, 15 and 30 min on ice; EMSA: 0.5 uM RNA, 20 mM HEPES pH 7.5, 150 mM K acetate; details: protein: recombinant; tags: His tag cleaved with 3C protease; label: 5'-DY681

## CAACUAAUUUUCACUCCUUUAA (ssRNA) [DUO-21mer]
[1]; label: 5'-Cy3
  Kd: 36 nM

## ACUAAUUUUCACUCCUUUAA (ssRNA) [DUO-19mer]
[1]; label: 5'-Cy3
  Kd: 42 nM

## CUUCCGGCUAAUUUUCACUCCUUUAA (ssRNA) [SUN4-DUO_Mut1]
[2]
  binding signal: ~2 fold reduction in affinity vs DUO-25mer

## CUUCCGGCUAAUUUUUAUCCCUCUAA (ssRNA) [SUN4-DUO_Mut3]
[2]
  binding signal: ~10 fold further loss of affinity (vs Mut2)

## UAAUUUUCACUCCUUUAA (ssRNA) [DUO-17mer]
[1]; label: 5'-Cy3
  Kd: 124 nM

## AGAACUCUUCCAACUA (ssRNA) [CCACCU-16mer (CCAACU motif)]
[3]
  binding result: no binding

## CUUCCAACUAAUUUUUAUCCCUCUAA (ssRNA) [SUN4-DUO_Mut2]
[1]; label: 5'-Cy3
  Kd: 104 nM

## AUUUUCACUCCUUUAA (ssRNA) [SEE-15mer]
[1]; label: 5'-DY681 (EMSA), 5'-Cy3 (anisotropy)
  Kd: 166 nM

## CUUCCAACUAAUUUUCACUCCUUUAA (ssRNA) [DUO-25mer]
[1]; label: 5'-Cy3 (anisotropy)
  Kd: 8 nM
